From patent publication US20190233494A1 (Sanofi, published 2019)
Starred links: 1 amine or outer side, 2 acyl side, 3 side chain; linkers in the order of their positions; H or OH if unused. Non-standard residues stand in square brackets, D forms with d. Groups on a side chain read outwards from the residue. *: point of attachment. TTDS = 4-[3-[2-[2-(3-aminopropoxy)ethoxy]ethoxy]propylamino]-4-oxo-butanoyl; γGlu = O=C(O)[C@H](CCC(=O)[*:2])N[*:1]; Stearoyl = CCCCCCCCCCCCCCCCCC(=O)*; Palmitoyl = CCCCCCCCCCCCCCCC(=O)*; Cit = NC(=O)NCCC[C@H](N)C(=O)O; αMeK = C[C@](N)(CCCCN)C(=O)O; hLys = NCCCCC[C@H](N)C(=O)O; AEEA = NCCOCCOCC(=O)O; Aib = CC(C)(N)C(=O)O

How the values were obtained:
[1] = molecular target: T1, RXFP1 receptor (endogenous, on OVCAR5 cells) (UniProt Q9HBX9 1-757, limits assumed); experiment: cell-based or functional assay
T1 sequence (looked up): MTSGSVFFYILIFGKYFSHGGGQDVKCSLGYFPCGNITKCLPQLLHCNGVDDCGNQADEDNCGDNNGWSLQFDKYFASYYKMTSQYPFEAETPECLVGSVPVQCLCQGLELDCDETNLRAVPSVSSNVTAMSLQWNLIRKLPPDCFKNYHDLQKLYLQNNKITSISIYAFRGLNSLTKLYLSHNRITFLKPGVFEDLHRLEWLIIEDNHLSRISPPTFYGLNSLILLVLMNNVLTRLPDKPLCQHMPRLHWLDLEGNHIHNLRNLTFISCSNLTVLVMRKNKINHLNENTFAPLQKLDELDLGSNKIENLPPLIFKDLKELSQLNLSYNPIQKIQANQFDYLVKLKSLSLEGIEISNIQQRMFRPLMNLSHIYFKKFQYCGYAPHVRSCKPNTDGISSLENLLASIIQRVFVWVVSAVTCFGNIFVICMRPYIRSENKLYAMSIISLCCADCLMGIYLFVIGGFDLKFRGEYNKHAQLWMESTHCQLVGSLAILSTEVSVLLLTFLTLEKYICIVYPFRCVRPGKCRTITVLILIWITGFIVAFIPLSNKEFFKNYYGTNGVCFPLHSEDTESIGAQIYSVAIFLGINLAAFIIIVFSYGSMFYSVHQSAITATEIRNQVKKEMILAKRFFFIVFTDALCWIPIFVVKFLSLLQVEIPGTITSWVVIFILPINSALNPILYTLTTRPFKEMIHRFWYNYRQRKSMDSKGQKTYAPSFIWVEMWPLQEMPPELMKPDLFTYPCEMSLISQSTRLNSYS

[2] = molecular target: T1, RXFP1 receptor (endogenous, on OVCAR5 …); experiment: cell-based or functional assay; remark: listed apart in the source

Binder	EC50 (nM), OVCAR 5 cells (cAMP) [1] [nM]	EMax, OVCAR 5 cells (cAMP) [1] [%]	EC50 (nM), cAMP assay in OVCAR 5 cells [2] [nM]	Emax, cAMP assay in OVCAR 5 cells [2] [%]
Ac-LEGREKVRAK(Ac)I[Aib][Aib]EGK([TTDS-TTDS-γGlu-γGlu-γGlu-γGlu-Stearoyl])STWS[Aib]RKK(Ac)-NH2 [peptide of SEQ ID NO: 54]	0.16	96		
Ac-LEGREKVRAK(Ac)I[Aib][Aib]EGK([TTDS-TTDS-TTDS-γGlu-γGlu-γGlu-Palmitoyl])STWS[hLys]RAK(Ac)-NH2 [peptide of SEQ ID NO: 57]	0.44	98		
Ac-VIKLSGRELVRAQIAISGMSTWSKRSL-NH2 [AcB7-33 C11.23S]			929	70
Ac-LEGREKVRAK(Ac)I[Aib][Aib]EGK([AEEA-AEEA-AEEA-AEEA-AEEA-γGlu-γGlu-γGlu-Palmitoyl])STFS[αMeK]RAK(Ac)-NH2 (SMILES CCCCCCCCCCCCCCCC(=O)N[C@@H](CCC(=O)N[C@@H](CCC(=O)N[C@@H](CCC(=O)NCCOCCOCC(=O)NCCOCCOCC(=O)NCCOCCOCC(=O)NCCOCCOCC(=O)NCCOCCOCC(=O)NCCCC[C@H](NC(=O)CNC(=O)[C@H](CCC(=O)O)NC(=O)C(C)(C)NC(=O)C(C)(C)NC(=O)[C@@H](NC(=O)[C@H](CCCCNC(C)=O)NC(=O)[C@H](C)NC(=O)[C@H](CCCNC(=N)N)NC(=O)[C@@H](NC(=O)[C@H](CCCCN)NC(=O)[C@H](CCC(=O)O)NC(=O)[C@H](CCCNC(=N)N)NC(=O)CNC(=O)[C@H](CCC(=O)O)NC(=O)[C@H](CC(C)C)NC(C)=O)C(C)C)[C@@H](C)CC)C(=O)N[C@@H](CO)C(=O)N[C@H](C(=O)N[C@@H](Cc1ccccc1)C(=O)N[C@@H](CO)C(=O)N[C@@](C)(CCCCN)C(=O)N[C@@H](CCCNC(=N)N)C(=O)N[C@@H](C)C(=O)N[C@@H](CCCCNC(C)=O)C(N)=O)[C@@H](C)O)C(=O)O)C(=O)O)C(=O)O) [peptide of SEQ ID NO: 45]	0.45	96		
Ac-LEGREKVRA[Cit]I[Aib][Aib]EGK([TTDS-TTDS-TTDS-γGlu-γGlu-γGlu-Stearoyl])STFS[αMeK]RAK(Ac)-NH2 [peptide of SEQ ID NO: 56]	0.15	91		
Ac-LEGRERVRAK(Ac)I[Aib][Aib]EGK([TTDS-TTDS-TTDS-γGlu-γGlu-γGlu-Palmitoyl])STWS[Aib]RRK(Ac)-NH2 [peptide of SEQ ID NO: 55]	0.18			
Ac-LEGREKVRAK(Ac)I[Aib][Aib]EGK([AEEA-AEEA-AEEA-AEEA-γGlu-γGlu-γGlu-Palmitoyl])STWS[αMeK]RAK(Ac)-NH2 (SMILES CCCCCCCCCCCCCCCC(=O)N[C@@H](CCC(=O)N[C@@H](CCC(=O)N[C@@H](CCC(=O)NCCOCCOCC(=O)NCCOCCOCC(=O)NCCOCCOCC(=O)NCCOCCOCC(=O)NCCCC[C@H](NC(=O)CNC(=O)[C@H](CCC(=O)O)NC(=O)C(C)(C)NC(=O)C(C)(C)NC(=O)[C@@H](NC(=O)[C@H](CCCCNC(C)=O)NC(=O)[C@H](C)NC(=O)[C@H](CCCNC(=N)N)NC(=O)[C@@H](NC(=O)[C@H](CCCCN)NC(=O)[C@H](CCC(=O)O)NC(=O)[C@H](CCCNC(=N)N)NC(=O)CNC(=O)[C@H](CCC(=O)O)NC(=O)[C@H](CC(C)C)NC(C)=O)C(C)C)[C@@H](C)CC)C(=O)N[C@@H](CO)C(=O)N[C@H](C(=O)N[C@@H](Cc1c[nH]c2ccccc12)C(=O)N[C@@H](CO)C(=O)N[C@@](C)(CCCCN)C(=O)N[C@@H](CCCNC(=N)N)C(=O)N[C@@H](C)C(=O)N[C@@H](CCCCNC(C)=O)C(N)=O)[C@@H](C)O)C(=O)O)C(=O)O)C(=O)O) [peptide of SEQ ID NO: 42]	1.5	84		
H-VIKLSGRELVRAQIAISGMSTWSKRSL-NH2 [B7-33 C11.23S]			1640	90
Ac-LEGREKVRAKI[Aib][Aib]EGK([TTDS-TTDS-TTDS-γGlu-γGlu-γGlu-Palmitoyl])STFS[αMeK]RAK(Ac)-NH2 [peptide of SEQ ID NO: 47]	0.64	95		
Ac-LEGREKVRAK(Ac)I[Aib][Aib]EGK([TTDS-TTDS-TTDS-γGlu-γGlu-γGlu-γGlu-Stearoyl])STWS[Aib]RKK(Ac)-NH2 [peptide of SEQ ID NO: 51]	0.1	98		
Ac-LEGREKVRAK(Ac)I[Aib][Aib]EGK([TTDS-TTDS-TTDS-γGlu-γGlu-γGlu-Palmitoyl])STW[Dser]KRAK(Ac)-NH2 [peptide of SEQ ID NO: 44]	2.2	97		
Ac-LEGREKVRAK(Ac)I[Aib][Aib]EGK([TTDS-TTDS-TTDS-γGlu-γGlu-γGlu-Palmitoyl])STFS[αMeK]RAK-NH2 [peptide of SEQ ID NO: 49]	0.19	97		
Ac-LEGREKVRAQI[Aib][Aib]EGK([TTDS-TTDS-TTDS-γGlu-γGlu-γGlu-Palmitoyl])STFS[αMeK]RAK(Ac)-NH2 [peptide of SEQ ID NO: 48]	0.45	96		
Ac-VIKLSGRELVRAQIAISGMSTWSKKKK-NH2 [KKKK(AcB7-29 C11.23S)]			206	84
